Key:
[1] = target: T1, recombinant human EGFR/ErbB1/HER1 with C-terminal His tag, Cy5-labeled (human, UniProt P00533 25-645, Cy5 label (reacted with Cy5 Mono NHS Ester; sites not stated)); experiment: competitive TR-FRET (Eu-amivantamab/Cy5-EGFR), EC50 ratio vs Reference Material; Ex. 2 Formulation 1 (10 mM histidine), 3 months at 5 C
T1 construct: Commercial protein; also called Cy5-EGFR; Cy5-labeled EGFR antigen; not shown: C-terminal His tag
Text: (§1) In this procedure, varying concentrations of unlabeled bispecific EGFR-cMet antibody sample compete with donor fluorophore (Europium (Eu) chelate) labeled bispecific EGFR-cMet antibody for binding to an acceptor fluorophore (Cy5)-labeled EGFR antigen. Excitation of the donor fluorophore results in a transfer of energy to the bound acceptor fluorophore (FRET process). The resultant FRET is detected by emission of light at 665 nm using a microplate reader capable of measuring time-resolved fluorescence. Sample dose response curves are compared to the RM.
(§2) EGFR Binding Materials and Methods. Certified commercial EGFR, a recombinant human EGFR/ErbB1/HER1 with C-terminal His tag is reacted with certified commercial Cy5 Mono NHS Ester to produce Cy5-labeled EGFR. Validated bispecific EGFR-cMet antibody is reacted with certified commercial Europium (Eu) chelate to produce Eu-labeled bispecific EGFR-cMet antibody. […] Fluorescence is then measured by spectrophotometry at 665 nm, plotted against antibody concentration and analyzed by a four-parameter logistic model. The antibody concentration required to obtain half of the maximum fluorescence response (EC50) is determined for RM, assay control and samples. The potencies of assay control and samples are calculated based on the ratio of the sample (or control) and RM EC50 values and reported as a percentage activity relative to the RM.

[2] = target: T1, recombinant human EGFR/ErbB1/HER1 with …; experiment: competitive TR-FRET (Eu-amivantamab/Cy5-EGFR), EC50 ratio vs Reference Material; Ex. 2 Formulation 3 (acetate), 3 months at 25 C
Text: as §1, §2

[3] = target: T2, recombinant cMet/HGFR with c-terminal His-tag, Cy5-labeled (UniProt P08581 25-932, limits assumed, Cy5 label (reacted with Cy5 Mono NHS Ester; sites not stated)); experiment: competitive TR-FRET (Eu-amivantamab/Cy5-c-MET), EC50 ratio vs Reference Material; Ex. 12 drug product with rHuPH20, 0 months, 40 C table
T2 construct: Commercial protein; also called Cy5-c-MET; Cy5-labeled c-MET antigen; not shown: C-terminal His-tag
Text: as §1, with “(Cy5)-labeled c-MET” for “(Cy5)-labeled EGFR”, “the Reference Material (RM).” for “the RM.”
as §2, with “c-MET Binding” for “EGFR Binding”, “commercial cMet,” for “commercial EGFR,”, “recombinant cMet/HGFR” for “recombinant human EGFR/ErbB1/HER1”, “with c-terminal His-tag” for “with C-terminal His tag”, “Cy5-labeled c-MET.” for “Cy5-labeled EGFR.”, “produce Eu labeled” for “produce Eu-labeled”

[4] = target: T1, recombinant human EGFR/ErbB1/HER1 with …; experiment: competitive TR-FRET (Eu-amivantamab/Cy5-EGFR), EC50 ratio vs Reference Material; Ex. 11 drug product, 3 months at 25 C
Text: as §1, §2

[5] = target: T2, recombinant cMet/HGFR with c-terminal …; experiment: competitive TR-FRET (Eu-amivantamab/Cy5-c-MET), EC50 ratio vs Reference Material; Ex. 2 Formulation 2 (50 mM histidine), T0, 5 C table
Text: as §1, with “(Cy5)-labeled c-MET” for “(Cy5)-labeled EGFR”, “the Reference Material (RM).” for “the RM.”
as §2, with “c-MET Binding” for “EGFR Binding”, “commercial cMet,” for “commercial EGFR,”, “recombinant cMet/HGFR” for “recombinant human EGFR/ErbB1/HER1”, “with c-terminal His-tag” for “with C-terminal His tag”, “Cy5-labeled c-MET.” for “Cy5-labeled EGFR.”, “produce Eu labeled” for “produce Eu-labeled”

B1: amivantamab (bispecific antibody, human IgG1, kappa)
heavy 1: not shown
light 1: not shown
heavy 2: not shown
light 2: DIQMTQSPSSVSASVGDRVTITCRASQGISNWLAWFQHKPGKAPKLLIYAASSLLSGVPSRFSGSGSGTDFTLTISSLQPEDFATYYCQQANSFPITFGQGTRLEIKRTVAAPSVFIFPPSDEQLKSGTASVVCLLNNFYPREAKVQWKVDNALQSGNSQESVTEQDSKDSTYSLSSTLTLSKADYEKHKVYACEVTHQGLSSPVTKSFNRGEC
notes: The samples tested were high concentration (160 mg/mL) formulations, fresh or stored or stressed; also called JNJ-61186372; bispecific EGFR-cMet antibody
[1]
  EGFR Binding % activity relative to RM: 102%
[2]
  EGFR Binding % activity relative to RM: 92%
[3]
  cMET Binding activity relative to Reference Material (%): 91%
[4]
  EGFR Binding activity relative to Reference Material (%): 71%
[5]
  cMET Binding % activity relative to RM: 102%

Source: patent publication US20240034813A1 (Janssen / Centocor, published 2024)
